Test [1] has as its target smooth muscle tropomyosin, purified α/β heterodimer of chicken gizzard Tpm1.4 and Tpm2.1 (chicken). Briefly: SPR; BIAcore X100; Tpm amine-coupled to CM5 chip; SMTNL1-TMB 0.12-10 uM injected; 20 mM HEPES pH 7.5, 100 mM KCl, 1 mM DTT, 0.005% Tween-20; 25 C; n = 3. Background: In SPR one partner is held on a chip, and binding of the other changes the refractive index at the surface.

Test [2] has the same target. Nature of the test: pull-down; Tpm covalently bound to CNBr-activated Sepharose (40 uL); 200 ug SMTNL1-TMB; 20 mM Tris-HCl pH 7.5, 0.1% beta-mercaptoethanol, 2 h at 4 C; washed with 150 mM NaCl; Coomassie stain, densitometry.
The target in test [3] is SMTNL1-TMB, Tpm-binding region of smoothelin-like 1 protein (amino acids 195-459), unphosphorylated (UniProt Q99LM3). Nature of the test: pull-down; competition, apo-CaM: SMTNL1-TMB premixed with Tpm (equimolar or other molar ratios) for 1 h at 4 C, then added to CaM-Sepharose with 1 mM EDTA.

pKd: −log10 of the molar value.

Regarding “SMTNL1-TMB phosphorylated at Ser301 with PKA (from UniProt Q99LM3 195-459) (domain or fragment)”, in test [1], the pKd (in general, the negative decadic logarithm of the Kd, by convention in mol/L) is 6.49. This substance showed a fold recovered against unphosphorylated SMTNL1-TMB in test [2] of 2 fold. “smooth muscle tropomyosin, purified α/β heterodimer of chicken gizzard Tpm1.4 and Tpm2.1 (complex)”: the percent reduction of SMTNL1-TMB binding to apo-CaM-Sepharose by equimolar Tpm in test [3] was 60%. In test [1], “SMTNL1-TMB, Tpm-binding region of smoothelin-like 1 protein (amino acids 195-459), unphosphorylated (from UniProt Q99LM3 195-459) (domain or fragment)” had a pKd of 5.52.

For the origin of these results see paper PMC5359911.
